Results from patent US20230158141A1 (YAFEI SHANGHAI BIOLOG MEDICINE SCIENCE AND TECHNOLOGY, published 2023).
Where a chain is given by its changes, count along the chain named. Numbers in names are those of the source.

B1: anti-PD-1 antibody 2 heavy chain G33C (antibody, human IgG4 S228P, kappa, V domains shown)
VH: QVQLVESGGGVVQPGRSLRLDCKASGITFSNSCMHWVRQAPGKGLEWVAVIWYDGSKRYYADSVKGRFTISRDNSKNTLFLQMNSLRAEDTAVYYCATNDDYWGQGTLVTVSS
VL: EIVLTQSPATLSLSPGERATLSCRASQSVSSYLAWYQQKPGQAPRLLIYDASNRATGIPARFSGSGSGTDFTLTISSLEPEDFAVYYCQQSSNWPRTFGQGTKVEIKR
B2: anti-PD-1 antibody 2 heavy chain S56C (antibody, human IgG4 S228P, kappa, V domains shown)
VH: B1 VH with C33G, S56C
VL: B1 VL
B3: anti-PD-1 antibody 2 heavy chain G66C (antibody, human IgG4 S228P, kappa, V domains shown)
VH: B1 VH with C33G, G66C
VL: B1 VL
B4: anti-PD-1 antibody 2 heavy chain S30C (antibody, human IgG4 S228P, kappa, V domains shown)
VH: B1 VH with S30C, C33G
VL: B1 VL
B5: anti-PD-1 antibody 2 heavy chain G55C (antibody, human IgG4 S228P, kappa, V domains shown)
VH: B1 VH with C33G, G55C
VL: B1 VL
B6: anti-PD-1 antibody 2 heavy chain S32C (antibody, human IgG4 S228P, kappa, V domains shown)
VH: B1 VH with S32C, C33G
VL: B1 VL
B7: anti-PD-1 antibody 2 heavy chain S63C (antibody, human IgG4 S228P, kappa, V domains shown)
VH: B1 VH with C33G, S63C
VL: B1 VL
B8: anti-PD-1 antibody 1 heavy chain G50C (antibody, human IgG4 S228P, kappa, V domains shown)
VH: QVQLVQSGVEVKKPGASVKVSCKASGYTFTNYYMYWVRQAPGQGLEWMGCINPSNGGTNFNEKFKNRVTLTTDSSTTTAYMELKSLQFDDTAVYYCARRDYRFDMGFDYWGQGTTVTVSS
VL: EIVLTQSPATLSLSPGERATLSCRASKGVSTSGYSYLHWYQQKPGQAPRLLIYLASYLESGVPARFSGSGSGTDFTLTISSLEPEDFAVYYCQHSRDLPLTFGGGTKVEIKR
B9: anti-PD-1 antibody 1 heavy chain G56C (antibody, human IgG4 S228P, kappa, V domains shown)
VH: B8 VH with C50G, G56C
VL: B8 VL
B10: anti-PD-1 antibody 1 heavy chain T30C (antibody, human IgG4 S228P, kappa, V domains shown)
VH: B8 VH with T30C, C50G
VL: B8 VL
B11: anti-PD-1 antibody 1 heavy chain G57C (antibody, human IgG4 S228P, kappa, V domains shown)
VH: B8 VH with C50G, G57C
VL: B8 VL
B12: anti-PD-1 antibody 1 heavy chain T58C (antibody, human IgG4 S228P, kappa, V domains shown)
VH: B8 VH with C50G, T58C
VL: B8 VL
B13: anti-PD-1 antibody 1 heavy chain G106C (antibody, human IgG4 S228P, kappa, V domains shown)
VH: B8 VH with C50G, G106C
VL: B8 VL
B14: anti-PD-1 antibody 1 heavy chain S54C (antibody, human IgG4 S228P, kappa, V domains shown)
VH: B8 VH with C50G, S54C
VL: B8 VL
B15: anti-PD-1 antibody 2 HC Gly42Cys (antibody, human IgG4 S228P, kappa, V domains shown)
VH: B1 VH with C33G, G42C
VL: B1 VL
modifications: arm on Cys42 as named in each row
B16: anti-PD-1 antibody 2 HC Ser30Cys (antibody, human IgG4 S228P, kappa, V domains shown)
VH: B1 VH with S30C, C33G
VL: B1 VL
modifications: arm on Cys30 as named in each row
B17: anti-PD-1 antibody 2 HC Thr78Cys (antibody, human IgG4 S228P, kappa, V domains shown)
VH: B1 VH with C33G, T78C
VL: B1 VL
modifications: arm on Cys78 as named in each row
B18: anti-PD-1 antibody 2 HC Gly44Cys (antibody, human IgG4 S228P, kappa, V domains shown)
VH: B1 VH with C33G, G44C
VL: B1 VL
modifications: arm on Cys44 as named in each row
B19: anti-PD-1 antibody 2 HC Ser25Cys (antibody, human IgG4 S228P, kappa, V domains shown)
VH: B1 VH with S25C, C33G
VL: B1 VL
modifications: arm on Cys25 as named in each row
B20: anti-PD-1 antibody 2 HC Gly15Cys (antibody, human IgG4 S228P, kappa, V domains shown)
VH: B1 VH with G15C, C33G
VL: B1 VL
modifications: arm on Cys15 as named in each row
B21: anti-PD-1 antibody 2 HC Gly9Cys (antibody, human IgG4 S228P, kappa, V domains shown)
VH: B1 VH with G9C, C33G
VL: B1 VL
modifications: arm on Cys9 as named in each row
B22: anti-PD-1 antibody 2 HC Ser75Cys (antibody, human IgG4 S228P, kappa, V domains shown)
VH: B1 VH with C33G, S75C
VL: B1 VL
modifications: arm on Cys75 as named in each row
B23: anti-PD-1 antibody 2 HC Thr91Cys (antibody, human IgG4 S228P, kappa, V domains shown)
VH: B1 VH with C33G, T91C
VL: B1 VL
modifications: arm on Cys91 as named in each row
B24: anti-PD-1 antibody 2 HC Thr98Cys (antibody, human IgG4 S228P, kappa, V domains shown)
VH: B1 VH with C33G, T98C
VL: B1 VL
modifications: arm on Cys98 as named in each row
B25: anti-PD-1 antibody 2 HC Gly8Cys (antibody, human IgG4 S228P, kappa, V domains shown)
VH: B1 VH with G8C, C33G
VL: B1 VL
modifications: arm on Cys8 as named in each row
B26: anti-PD-1 antibody 2 HC Ser71Cys (antibody, human IgG4 S228P, kappa, V domains shown)
VH: B1 VH with C33G, S71C
VL: B1 VL
modifications: arm on Cys71 as named in each row
B27: anti-PD-1 antibody 2 HC Ser85Cys (antibody, human IgG4 S228P, kappa, V domains shown)
VH: B1 VH with C33G, S85C
VL: B1 VL
modifications: arm on Cys85 as named in each row
B28: anti-PD-1 antibody 2 HC Ser17Cys (antibody, human IgG4 S228P, kappa, V domains shown)
VH: B1 VH with S17C, C33G
VL: B1 VL
modifications: arm on Cys17 as named in each row
B29: anti-PD-1 antibody 2 HC Thr28Cys (antibody, human IgG4 S228P, kappa, V domains shown)
VH: B1 VH with T28C, C33G
VL: B1 VL
modifications: arm on Cys28 as named in each row
B30: anti-PD-1 antibody 2 HC Gly26Cys (antibody, human IgG4 S228P, kappa, V domains shown)
VH: B1 VH with G26C, C33G
VL: B1 VL
modifications: arm on Cys26 as named in each row
B31: anti-CTLA-4 antibody light chain A25C (antibody, human IgG1, kappa, V domains shown)
VH: QVQLVESGGGVVQPGRSLRLSCAASGFTFSSYTMHWVRQAPGKGLEWVTFISYDGNNKYYADSVKGRFTISRDNSKNTLYLQMNSLRAEDTAIYYCARTGWLGPFDYWGQGTLVTVSS
VL: not shown
B32: anti-CTLA-4 antibody light chain G30C (antibody, human IgG1, kappa, V domains shown)
VH: B31 VH
VL: not shown

target: PD-1 (UniProt Q15116 25-167, limits assumed); experiment: ELISA, OD mutant/OD WT; A=90-110%
Target sequence in this assay (Q15116 25-167 limits assumed): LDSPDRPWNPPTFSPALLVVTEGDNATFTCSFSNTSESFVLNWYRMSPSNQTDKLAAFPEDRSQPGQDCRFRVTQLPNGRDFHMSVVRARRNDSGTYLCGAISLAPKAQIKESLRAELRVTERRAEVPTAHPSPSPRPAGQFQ

Binder | binding activity (OD after mutation/OD wild type)
B1 | 90 to 110%
B2 | 90 to 110%
B3 | 90 to 110%
B4 | 90 to 110%
B5 | 90 to 110%
B6 | 90 to 110%
B7 | 90 to 110%
B8 | 90 to 110%
B9 | 90 to 110%
B10 | 90 to 110%
B11 | 90 to 110%
B12 | 90 to 110%
B13 | 90 to 110%
B14 | 90 to 110%

target: T1, PD-1 (UniProt Q15116 25-167, limits assumed); experiment: ELISA; S9 on the Cys
T1 sequence (Q15116 25-167 limits assumed): as above

Binder | binding activity, % of wild type
B15 | 63.6%
B16 | 31.8%
B17 | 86.3%
B18 | 78.3%
B19 | 48.7%
B20 | 32.5%
B21 | 87.4%
B22 | 38.7%
B23 | 48.9%
B24 | 59.9%
B25 | 78.3%
B26 | 56.9%
B27 | 69.4%
B28 | 75.3%
B29 | 29.9%
B30 | 31.8%

target: T1, PD-1; experiment: ELISA; S13 on the Cys

Binder | binding activity, % of wild type
B15 | 29.8%
B16 | 15.3%
B17 | 42.4%
B18 | 30.8%
B19 | 27%
B20 | 21.5%
B21 | 24.6%
B22 | 14.6%
B23 | 21.7%
B24 | 32.1%
B25 | 34.2%
B26 | 22.9%
B27 | 32.3%
B28 | 42.4%
B29 | 15%
B30 | 11.7%

target: T1, PD-1; experiment: ELISA; Cys mutant, no arm

Binder | binding activity, % of wild type
B15 | 83.4%
B16 | 89.7%
B17 | 92.2%
B18 | 99.3%
B19 | 99.8%
B20 | 85.6%
B21 | 97.8%
B22 | 96.3%
B23 | 86%
B24 | 89.6%
B25 | 93.2%
B26 | 81.4%
B27 | 98.8%
B28 | 85%
B29 | 86.4%
B30 | 95.4%

target: CTLA-4 (UniProt P16410 36-162, limits assumed); experiment: ELISA, OD mutant/OD WT; A=90-110%
Sequence (P16410 36-162 limits assumed): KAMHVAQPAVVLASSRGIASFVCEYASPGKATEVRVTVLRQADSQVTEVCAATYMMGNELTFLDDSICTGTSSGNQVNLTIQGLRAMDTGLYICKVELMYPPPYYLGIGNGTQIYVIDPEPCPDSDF

Binder | binding activity (OD after mutation/OD wild type)
B31 | 90 to 110%
B32 | 90 to 110%
